Changes are numbered by the printed parent chain.
Key:
yedK R162A = target: T1, yedK R162A (Escherichia coli (gene from BL21 …, UniProt P76318 2-222, R162A)); assay: ITC
T1 sequence: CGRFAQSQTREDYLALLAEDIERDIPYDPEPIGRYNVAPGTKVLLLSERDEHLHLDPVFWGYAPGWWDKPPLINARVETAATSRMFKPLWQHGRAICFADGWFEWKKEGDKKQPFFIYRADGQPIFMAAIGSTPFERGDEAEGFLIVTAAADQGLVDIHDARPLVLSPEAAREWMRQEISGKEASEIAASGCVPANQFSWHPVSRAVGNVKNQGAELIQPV

yedK W67A = target: T2, yedK W67A (Escherichia coli (gene from BL21 …, UniProt P76318 2-222, W67A)); assay: ITC
T2 sequence: T1 sequence with W66A, A161R

## CGGTCGATTC (ssDNA) [ssDNA]
yedK R162A
  binding result: no binding
yedK W67A
  binding result: no binding

Source: article PMC6821365
